In patent US20190062427A1 (Alector, published 2019):
Where a chain is given by its changes, count along the chain named.

B1: anti-Siglec-9 antibody 7H12 (antibody, V domains shown)
VH: QVQLQQSGAEVVKPGASVKLSCKAFGYTFTSYWMHWVKQRPGQGLEWIGEINPRDGVSNCNEKFTSKATLTVDTSSNTAYMQLNNLTSEDSAVYYCTIWEDYFDYWGQGTTLTVST
VL: NVZMTQTPLTLSVTLGQPASISCKSSQSLLYTNGKTYLNWLLQRPGQSPKLLIYLVSKLESGVPDRFSGSGSGTDFTLKINRVEAEDLGVYFCLQAPHFPLTFGGGTKLEMK
notes: the asterisk is not explained; the printed VL holds a 'Z' at position 3
B2: anti-Siglec-9 antibody 5B1 (antibody, IgG1, V domains shown)
VH: B1 VH
VL: B1 VL with Z3V, F92Y, P97T, G105A, M111L
B3: anti-Siglec-9 antibody 5C6 (antibody, V domains shown)
VH: EVQLQQSGPELVKPGASVRISCKASGYTFTDYNIHWVKQSQGKSLEWIGYIYPYNGDTGYNQKFQNKATLTVDNSSSTAYMELRSLTSEDSAVYYCANGNYLYYYAMDYWGQGTSVTVSS
VL: DVVMTQTPLSLPVSLGDQVSISCSSSQSLVHSNGNTYLHWYLQKSGQSPKLLIYKVSNRFSGVPDRFRGSGSGTDFTLKISRVEAEDLGVYFCSQNTHVPLTFGAGTKLELK
notes: Murine antibody; also called S9-5C6; S9-5C6.3
B4: anti-Siglec-9 antibody 2D5 (antibody, IgG1, V domains shown)
VH: QVQLQQSGPELVKPGASVKISCKASGYAFSSYWMNWVKQRPGKGLEWIGRIYPRDGDTNYNGKFKGKATLTADKSSSTAYMQLSSLTSEDSAVYFCARWLLRFAYWGQGTLVTVSA
VL: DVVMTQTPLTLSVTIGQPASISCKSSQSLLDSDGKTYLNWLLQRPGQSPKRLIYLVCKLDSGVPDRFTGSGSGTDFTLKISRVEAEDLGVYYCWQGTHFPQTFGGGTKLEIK
B5: anti-Siglec-9 antibody 12B12 (antibody, V domains shown)
VH: EVQLVESGGGLVQPGGSLKLSCAASGFTFSNYGMSWVRQILDKRLELVATINSNGGRTYYPDSVKGRFTISRDNAKNTLYLQMSSLRSEDTAIYYCVTYYRYDSYAMDYWGQGTSVTVSS
VL: DIVLTQSPASLAVSLGQRATISCRASENVDSYGISFMHWYQQKPGQPPKLLIYRASNLESGIPARFSGSGSRTDFTLTINPVEADDVATYYCQQSNEDPWTFGGGTKLEIK
notes: Murine antibody; also called S9-12B12; S9-12B12.2

Columns and labels:
[1] = biological target: T1, Siglec-9-Fc (R&D Systems, catalog number 1139-SL-050) (human, UniProt Q9Y336 18-348); assay: FACS ligand competition: 25 ug/ml mAb pre-coupled with 25 ug/ml Siglec-9-Fc, binding to sialic acid ligands on U937 cells, anti-human IgG-PE
T1 construct: Bought fusion protein; also called Siglec-9-Fc fusion protein; not shown: human IgG1 Fc
T1 sequence (Q9Y336 18-348 limits assumed): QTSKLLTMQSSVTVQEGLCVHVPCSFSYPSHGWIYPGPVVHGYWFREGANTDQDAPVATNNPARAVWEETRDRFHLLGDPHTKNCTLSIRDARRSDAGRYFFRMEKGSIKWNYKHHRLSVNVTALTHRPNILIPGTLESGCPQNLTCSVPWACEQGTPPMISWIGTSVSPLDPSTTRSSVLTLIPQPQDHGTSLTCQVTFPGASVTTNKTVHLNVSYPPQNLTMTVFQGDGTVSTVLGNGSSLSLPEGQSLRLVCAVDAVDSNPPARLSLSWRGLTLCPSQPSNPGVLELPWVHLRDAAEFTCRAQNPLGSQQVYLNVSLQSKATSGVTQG
Procedure: To determine whether Siglec-9 antibodies block binding to sialic acid ligands, U937 cells, which robustly express sialic acid ligands that predominantly bind to Siglec-9, were utilized in a FACS-based protocol. Briefly, 25 μg/ml Siglec-9 antibodies were pre-coupled with 25 μg/ml Siglec-9-Fc (R&D Systems, catalog number 1139-SL-050) for 20 minutes on ice in binding buffer (PBS with 0.25% BSA and 1 mM CaCl₂) in 96-well round bottom plates. […] Cells were pelleted and resuspended in goat anti-human IgG-PE (SouthernBiotech catalog number 2040-09) secondary antibody at 1:2000 dilution in binding buffer for 30 minutes. Cells were then washed three times and analyzed by flow cytometry on a BD FACS Canto. Data were analyzed on FlowJo version 10.0.6 (TreeStar).

[2] = biological target: T2, human Siglec-9 expressed on human cells (human, UniProt Q9Y336 18-463); assay: cell-based or functional assay
T2 sequence (Q9Y336 18-463): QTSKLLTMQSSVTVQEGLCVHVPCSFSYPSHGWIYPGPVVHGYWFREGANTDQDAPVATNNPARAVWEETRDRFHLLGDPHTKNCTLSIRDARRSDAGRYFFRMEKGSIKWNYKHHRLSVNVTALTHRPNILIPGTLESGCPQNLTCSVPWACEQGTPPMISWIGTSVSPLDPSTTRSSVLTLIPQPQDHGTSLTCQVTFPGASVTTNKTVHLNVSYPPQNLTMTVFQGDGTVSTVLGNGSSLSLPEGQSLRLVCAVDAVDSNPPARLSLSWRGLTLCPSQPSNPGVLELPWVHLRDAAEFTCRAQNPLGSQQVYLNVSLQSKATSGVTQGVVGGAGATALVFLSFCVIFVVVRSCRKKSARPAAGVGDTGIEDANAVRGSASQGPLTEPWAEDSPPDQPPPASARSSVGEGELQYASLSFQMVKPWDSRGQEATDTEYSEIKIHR

[3] = biological target: T2, human Siglec-9 expressed on human cells; assay: cell-based or functional assay; remark: listed apart in the source
[4] = biological target: T2, human Siglec-9 expressed on human cells; assay: flow cytometry on human primary monocytes, 10 ug/ml mAb, PE secondary
Procedure: (§1) Initial characterization of Siglec-9 antibodies involved determining their ability to bind Siglec-9 expressed on human primary monocytes, human primary macrophages, human primary dendritic cells, human primary neutrophils, and human primary natural killer (NK) cells. Cells were harvested, plated at 10⁶/ml in a 96 well plate, and incubated in 100ul PBS containing 2% FBS, 2 mM EDTA and 10 μg/ml Mab and Fc blocking reagent for 1 hour in ice. Cells were washed twice and incubated in 100ul PBS containing 2% FBS, 2 mM EDTA and 5 μg/ml PE-conjugated secondary antibody for 30 minutes on ice. Cells were washed twice in cold PBS and analyze by flow cytometry on a BD FACS Canto. Data analysis and calculation of MFI values was performed with FlowJo (TreeStar) software version 10.0.7.
(§2) Binding is compared to an isotype control. […] In Table 5, “Buffer” refers to cells that were treated only with the PBS buffer described supra; “Secondary Ab” refers to cells that were treated only with the PE-conjugated secondary antibody; and “mIgG1,” “mIgG2a,” and “mIgG2b” refer to isotype control antibodies.

[5] = biological target: T3, Histidine-tagged human Siglec-9 (NovoProtein) (human, UniProt Q9Y336 18-348); assay: SPR Biacore T200, 25 C, 25 nM mAb captured on anti-mouse IgG CM5 chip, His-tagged Siglec-9 200 nM as analyte, single-concentration 1:1 fit
T3 construct: Bought protein; also called Siglec-9-his tagged protein; His-tagged Siglec 9 antigen; not shown: histidine tag
T3 sequence (Q9Y336 18-348 limits assumed): as the sequence (Q9Y336 18-348 limits assumed) above

[6] = biological target: T2, human Siglec-9 expressed on human cells; assay: flow cytometry on human primary dendritic cells, 10 ug/ml mAb, PE secondary
Procedure: as §1, §2

[7] = biological target: T2, human Siglec-9 expressed on human cells; assay: flow cytometry on human primary macrophages, 10 ug/ml mAb, PE secondary
Procedure: as §1, §2

[8] = biological target: T3, Histidine-tagged human Siglec-9 …; assay: SPR Biacore T200, 25 C, 25 nM mAb captured on anti-mouse IgG CM5 chip, His-tagged Siglec-9 100 nM as analyte, single-concentration 1:1 fit
Procedure: Affinity constants (KD) were calculated from the ratio kd/kₐ.

[9] = biological target: T3, Histidine-tagged human Siglec-9 …; assay: BLI ForteBio Octet RED96, mAb on AMC tips, His-tagged Siglec-9 3.13-50 nM; assay 1; column head prints nM but kd/ka gives M
Procedure: (§3) Antibodies were captured on anti-mouse IgG Fc capture (AMC) biosensor tips, after which a baseline was run for 60 seconds. A 15 minute association step was performed in a dilution series of His-tagged Siglec 9 antigen, ranging from 3.13 nM to 50 nM, after which dissociation was measured over 60 minutes. Affinity constants (KD) were calculated from the ratio kd/kₐ.

[10] = biological target: T3, Histidine-tagged human Siglec-9 …; assay: BLI ForteBio Octet RED96, mAb on AMC tips, His-tagged Siglec-9 3.13-50 nM; assay 2; column head prints nM but kd/ka gives M
Procedure: as §3

[11] = biological target: T3, Histidine-tagged human Siglec-9 …; assay: BLI ForteBio Octet RED96, mAb on AMC tips, His-tagged Siglec-9 3.13-50 nM; average of two assays
Procedure: as §3

Binder | Percent Siglec-9-Fc Binding [1] [%] | Percent Siglec-9 Surface Expression, Macrophages (% Siglec-9) [2] [%] | Percent Siglec-9 Surface Expression, Microglia (% Siglec-9) [2] [%] | Percent Siglec-9 Surface Expression, DCs (% Siglec-9) [3] [%] | Percent Siglec-9 Surface Expression, Monocytes (% Siglec-9) [3] [%] | Percent Siglec-9 Surface Expression, THP-1 cells (% Siglec-9) [3] [%] | % Positive [4] [%] | MFI [4] | Kd [5] [nM] | % Positive [6] [%] | MFI [6] | % Positive [7] [%] | MFI [7] | Kd [8] [nM] | Kd [9] [nM] | Kd [10] [nM] | Kd [11] [nM]
B1 | 97.8 | 34.2 | 54.7 | 66.2 | 48.4 | 68.9 | 38.3 | 216 | 9 | 60.5 | 331 | 94.8 | 467 | – | – | – | –
B2 | 97.8 | 24.8 | 27.5 | 39.2 | 31.2 | 61.6 | 75.9 | 310 | – | 97.8 | 646 | 98.7 | 621 | 2.7 | – | – | –
B3 | – | – | – | – | – | – | – | – | – | – | – | – | – | – | 0.532 | 0.557 | 0.54
B4 | 97.8 | 94.6 | 90.6 | 94.3 | 84.4 | 81.1 | 9.1 | 145 | – | 34.2 | 252 | 93.2 | 692 | 5.1 | – | – | –
B5 | – | – | – | – | – | – | – | – | – | – | – | – | – | – | 0.639 | 0.879 | 0.76
